Laboratory results from article PMC9294231, “gC1qR/C1qBP/HABP-1: Structural Analysis of the Trimeric Core Region, Interactions With a Novel Panel of Monoclonal Antibodies, and Their Influence on Binding to FXII” (Frontiers in Immunology, 2022).
One block for each molecule: values may come before it.

Key:
wild-type gC1qR (human) [1] = target: wild-type gC1qR (human) (UniProt Q07021); experiment: SEC; analytical gel filtration (Superdex 200 Increase 10/300 GL) of purified FXII, wild-type gC1qR and gC1qR/FXII in a Zn++-containing buffer, compared to size standards
[2] = target: gC1qR-avi, enzymatically biotinylated (human) (UniProt Q07021); experiment: SPR; enzymatically biotinylated gC1qR-avi or gC1qR-DD-avi captured to 100 RU on an SA chip; FXII or FXIIa injected 1.6 to 800 nM; 25°C, HBS-T with 50 µM ZnCl2; ligand heterogeneity model with two independent binding sites; apparent
[3] = target: gC1qR-DD-avi, enzymatically biotinylated (human) (UniProt Q07021); experiment: as above
[4] = target: HKH-20 HKH-20 peptide (Homo sapiens) (UniProt P01042); experiment: ITC; conditions: cited from earlier work
gC1qR-D1 (human) [5] = target: gC1qR-D1 (human) (UniProt Q07021); experiment: SEC; gel filtration on Superdex S200 in PBS (pH 7.4); solution behaviour shown in Figure S1 (not shown to me)
[6] = target: gC1qR-D1 (loop 1 deletion mutant) (human) (UniProt Q07021); experiment: SEC; analytical gel filtration of purified gC1qR proteins on Superdex 200 Increase 10/300 GL, compared to size standards (670, 66, 13 kDa)
gC1qR-D2 (human) [7] = target: gC1qR-D2 (human) (UniProt Q07021); experiment: SEC; gel filtration on Superdex S200 in PBS (pH 7.4); solution behaviour shown in Figure S1 (not shown to me)
[8] = target: gC1qR-D2 (loop 2 deletion mutant) (human) (UniProt Q07021); experiment: SEC; analytical gel filtration of purified gC1qR proteins on Superdex 200 Increase 10/300 GL, compared to size standards (670, 66, 13 kDa)
[9] = target: gC1qR-DD (double loop deletion mutant) (human) (UniProt Q07021); experiment: as above
gC1qR-DD (human) = gC1qR-DD (human) (UniProt Q07021); experiment: SEC; gel filtration on Superdex S200 in PBS (pH 7.4); solution behaviour shown in Figure S1 (not shown to me)
wild-type gC1qR (human) [10] = target: wild-type gC1qR (human) (UniProt Q07021); experiment: SEC; analytical gel filtration of purified gC1qR proteins on Superdex 200 Increase 10/300 GL, compared to size standards (670, 66, 13 kDa)
[11] = target: T1, wild-type gC1qR (residues 74-282) (human, UniProt Q07021 74-282); experiment: SEC; gel filtration on Superdex S200 in PBS (pH 7.4); solution behaviour shown in Figure S1 (not shown to me)
T1 construct: gC1qR/C1qBP/HABP-1, human, residues 74-282 (the mature form of the 282-residue pre-pro protein); Expressed from vector pT7HMT; the tag was removed with TEV protease; also called C1qBP; HABP-1; source: E. coli BL21(DE3), purified (NiNTA, TEV digestion, gel filtration Superdex S200)
T1 sequence (looked up): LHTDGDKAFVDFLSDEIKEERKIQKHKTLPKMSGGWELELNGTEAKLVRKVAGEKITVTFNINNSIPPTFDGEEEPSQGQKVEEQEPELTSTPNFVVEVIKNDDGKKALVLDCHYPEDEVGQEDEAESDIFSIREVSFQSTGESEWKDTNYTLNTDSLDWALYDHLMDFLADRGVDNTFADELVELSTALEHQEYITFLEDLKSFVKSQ

gC1qR-D1 (human) [12] = target: gC1qR-D1 (human) (UniProt Q07021); experiment: SPR; gC1qR proteins amine-coupled to a CMD200M chip (gC1qR 361 RU, D1 487 RU, D2 360 RU, DD 874 RU); HKH-20 injected 46.9 nM to 10 µM; 25°C, HBS-T (20 mM HEPES pH 7.4, 140 mM NaCl, 0.005% Tween-20); affinity (dose/response) model, apparent KD
gC1qR-D2 (human) [13] = target: gC1qR-D2 (human) (UniProt Q07021); experiment: as above
[14] = target: T1, wild-type gC1qR (residues 74-282); experiment: as above; conditions: both partners purified

Molecule: Factor XII (native) (natural protein)
- stoichiometry N (FXII monomer per gC1qR trimer) (wild-type gC1qR (human) [1]): 1

Molecule: gC1qR (from UniProt Q07021)
- Kd [4]: 6.3 µM

Molecule: gC1qR-D1 (loop 1 deletion mutant) (from UniProt Q07021 74-282) (domain or fragment)
- stoichiometry N [6]: 3

Molecule: gC1qR-D2 (loop 2 deletion mutant) (from UniProt Q07021 74-282) (domain or fragment)
- stoichiometry N [8]: 3

Molecule: gC1qR-DD (double loop deletion mutant) (from UniProt Q07021 74-282) (domain or fragment)
- stoichiometry N [9]: 3

Molecule: gC1qR-DD (from UniProt Q07021 74-138; Q07021 164-189; Q07021 202-282) (natural protein)
- stoichiometry N (gC1qR-DD (human)): 3

Molecule: wild-type gC1qR (residues 74-282) (from UniProt Q07021 74-282) (natural protein; other documents disagree on this pair)
- stoichiometry N [11]: 3

B1: peptide HKH-20 (peptide)
peptide: HKHGHGHGKHKNKGKKNGKH
notes: The discussion speaks of peptides derived from HMWK residues 493-516 in general; also called HKH-20 peptide; source: synthetic peptide (GenScript)
- Kd (gC1qR-D1 (human) [12]): 10 µM
- Kd (gC1qR-D2 (human) [13]): 10 µM
- Kd [14]: 8.7 µM

Results, then the molecule that gave them:

- KD-1 (first binding site) [2]: 0.27 nM
- KD-2 (second binding site) [2]: 134 nM
- ka-1 (first binding site) [2]: 408000 M⁻¹ s⁻¹
- ka-2 (second binding site) [2]: 48200 M⁻¹ s⁻¹
- kd-1 (first binding site) [2]: 9e-05 s⁻¹
- kd-2 (second binding site) [2]: 0.0063 s⁻¹
- KD-1 (first binding site) [3]: 0.12 nM
- KD-2 (second binding site) [3]: 178 nM
- ka-1 (first binding site) [3]: 1.13e+06 M⁻¹ s⁻¹
- ka-2 (second binding site) [3]: 63700 M⁻¹ s⁻¹
- kd-1 (first binding site) [3]: 0.000147 s⁻¹
- kd-2 (second binding site) [3]: 0.0112 s⁻¹
Molecule: activated Factor XIIa (FXIIa) (enzyme)

- stoichiometry N (gC1qR-D1 (human) [5]): 3
Molecule: gC1qR-D1 (from UniProt Q07021 74-138; Q07021 164-282) (natural protein)

- stoichiometry N (gC1qR-D2 (human) [7]): 3
Molecule: gC1qR-D2 (from UniProt Q07021 74-189; Q07021 202-282) (natural protein)

- KD-1 (first binding site) [2]: 4.85 nM
- KD-2 (second binding site) [2]: 97.6 nM
- ka-1 (first binding site) [2]: 676000 M⁻¹ s⁻¹
- ka-2 (second binding site) [2]: 23700 M⁻¹ s⁻¹
- kd-1 (first binding site) [2]: 0.00316 s⁻¹
- kd-2 (second binding site) [2]: 0.0023 s⁻¹
- KD-1 (first binding site) [3]: 1.69 nM
- KD-2 (second binding site) [3]: 26.4 nM
- ka-1 (first binding site) [3]: 674000 M⁻¹ s⁻¹
- ka-2 (second binding site) [3]: 34800 M⁻¹ s⁻¹
- kd-1 (first binding site) [3]: 0.00114 s⁻¹
- kd-2 (second binding site) [3]: 0.00091 s⁻¹
Molecule: native coagulation factor XII (FXII) (natural protein)

- stoichiometry N (wild-type gC1qR (human) [10]): 3
Molecule: wild-type gC1qR (from UniProt Q07021 74-282) (domain or fragment; other documents disagree on this pair)
